Assay results: the DeepSol protein solubility set

Assay: soluble on expression in E. coli; label from the status in PepcDB or PDB records

| Sequence | soluble on expression in E. coli |
| --- | --- |
| GAMGMQQGQMAYDRAITVFSPDGRLFQVEYAREAVKKGSTALGMKFANGVLLISDKKVRSRLIEQNSIEKIQLIDDYVAAVTSGLVADARVLVDFARISAQQEKVTYGSLVNIENLVKRVADQMQQYTQYGGVRPYGVSLIFAGIDQIGPRLFDCDPAGTINEYKATAIGSGKDAVVSFLEREYKENLPEKEAVTLGIKALKSSLEEGEELKAPEIASITVGNKYRIYDQEEVKKFL | soluble |
| MGSDKIHHHHHHMEEFVFFIEGNVNHPLTIDPTVWIFDERKVDLTTYFQELATKEDEMTAYKKAISKQWDKEITKGSEPPRPDTNGNVIKYEKQKLIHGSFGMPFMPFLKNSEPDSDAKTVTVVCADGNEHSFPIDEAAQFILGFAKNGSPLREDGPVHVYFGDGSNESTPIINVIRFSVS | not soluble |
| MIHSLFFHNNTKGTPSMKHPIDSISAEIEDEQAYVDKLFGKLDEEVVAANQRLNDVMLHVDPANPDAEALVRRETEYHALNEKIDRLNIAQLGLVFGRIDVTAQRTDLIDNWVAGTDNVDRRYIGRMGLDDRQNDYRTLLLDWRAPLARPFYLATTAHPEGVLHRRHIRTQGRSVVGVDDEVLSGVSAESAHSERADVVSETALYRAMCSARTGHMHSIVETIQREQDDIIRDPTRGVMVVEGGPGTGKTAVALHRVAYLLYTWRDQLAKTGVLIVGPNRSFLDYISRVLPELGETGVVLSTVGDLYPGISGTAVEDSLAREIKGSEEMVTVLRRLVQEYQQIPSEPFTIKIDGLELTVTPDIVKKARTRARRSRRPHNEARPLFTEHLTELLSHQMADLIGADPMGGKNLLSAADIAQLHDELLEESVVAEIVDEYWPQLTPQDTLTSLLESQNMISTVAYDYDEETQEALWRQQGSPWAASDAALLDELAVIIGVPDPEKERAEQEKAWREQIKDAQDALEILTGSANTDLDDESDAEILSAHDVIDAETLARRQEVRDIRSTAQRAREDLAWAYGHVIVDEAQELTPMEWRMVMRRCPSRWMTLVGDTAQTSSPAGVDSWAEALEPFVSGRYVTHHLTINYRTPAEIMEWANKVLHVFAPDAVGSTALRQSGTPVRFENSDAHAIEIAQKLRQDDPSRLTAIIGPDSMANNEIFGVSDIKGLEYDHVVVTNPIDIVNGSPQGWQDLYVALTRATQSLCIIGDLPELS | not soluble |
| CGVGFIAAIDGKPRRSVVEKGIEALKAVWHRGAVDADGKTGDGAGIHVAVPQKFFKDHVKVIGHRAPDNKLAVGQVFLPRISLDAQEACRCIVETEILAFGYYIYGWRQVPINVDIIGEKANATRPEIEQIIVGNNKGVSDEQFELDLYIIRRRIEKAVKGEQINDFYICSLSARSIIYKGMFLAEQLTTFYPDLLDERFESDFAIYHQRYSTNTFPTWPLAQPFRMLAHNGEINTVKGNVNWMKAHETRMEHPAFGTHMQDLKPVIGVGLSDSGSLDTVFEVMVRAGRTAPMVKMMLVPQALTSSQTTPDNHKALIQYCNSVMEPWDGPAALAMTDGRWVVGGMDRNGLRPMRYTITTDGLIIGGSETGMVKIDETQVIEKGRLGPGEMIAVDLQSGKLYRDRELKDHLATLKPWDKWVQNTTHLDELVKTASLKGEPSDMDKAELRRRQQAFGLTMEDMELILHPMVEDGKEAIGSMGDDSPIAVLSDKYRGLHHFFRQNFSQVTNPPIDSLRERRVMSLKTRLGNLGNILDEDETQTRLLQLESPVLTTAEFRAMRDYMGDTAAEIDATFPVDGGPEALRDALRRIRQETEDAVRGGATHVILTDEAMGPARAAIPAILATGAVHTHLIRSNLRTFTSLNVRTAEGLDTHYFAVLIGVGATTVNAYLAQEAIAERHRRGLFGSMPLEKGMANYKKAIDDGLLKIMSKMGISVISSYRGGGNFEAIGLSRALVAEHFPAMVSRISGIGLNGIQKKVLEQHATAYNEEVVALPVGGFYRFRKSGDRHGWEGGVIHTLQQAVTNDSYTTFKKYSEQVNKRPPMQLRDLLELRSTKAPVPVDEVESITAIRKRFITPGMSMGALSPEAHGTLNVAMNRIGAKSDSGEGGEDPARFRPDKNGDNWNSAIKQVASGRFGVTAEYLNQCRELEIKVAQGAKPGEGGQLPGFKVTEMIARLRHSTPGVMLISPPPHHDIYSIEDLAQLIYDLKQINPDAKVTVKLVSRSGIGTIAAGVAKANADIILISGNSGGTGASPQTSIKFAGLPWEMGLSEVHQVLTLNRLRHRVRLRTDGGLKTGRDIVIAAMLGAEEFGIGTASLIAMGCIMVRQCHSNTCPVGVCVQDDKLRQKFVGTPEKVVNLFTFLAEEVREILAGLGFRSLNEVIGRTDLLHQVSRGAEHLDDLDLNPRLAQVDPGENARYCTLQGRNEVPDTLDARIVADARPLFEEGEKMQLAYNARNTQRAIGTRLSSMVTRKFGMFGLQPGHITIRLRGTAGQSLGAFAVQGIKLEVMGDANDYVGKGLSGGTIVVRPTTSSPLETNKNTIIGNTVLYGATAGKLFAAGQAGERFAVRNSGATVVVEGCGSNGCEYMTGGTAVILGRVGDNFAAGMTGGMAYVYDLDDSLPLYINDESVIFQRIEVGHYESQLKHLIEEHVTETQSRFAAEILNDWAREVTKFWQVVPKEMLNRLEVPVHLPKAISAE | soluble |
| MGSDKIHHHHHHMSTKPFVYQDPFPLGKDETKYRKIEGSEKHVTVEQFAGKEVLRVCPEALSILANEAMRDVSFLLRPEHNESVAKILRDPEASMNDKGVALAFLRNAEISANFELPICQDTGTATVIAKKGQQVWTGGKDEEYLSKGVYKTYTEENLRYSQTVALNMYDEINTGTNLPAQVEIQAVDGDAYKFLFMAKGGGSANKTMLFQETKALLTPEKLEKFLVDKMKYLGTAACPPYHIAVVVGGCSADQCMKTVKLASAKYLDALPTQGNEHGQAFRDVELEEKLLQAAYKLGIGAQFGGKYFAHDVRVIRLPRHGASCPVGMAVSCSADRNIKAKITRDGLFVEELDRNPGRLIPEQYRGKHEHGVKIDLNRPMKEILAELSKYPVATPLLLNGTIVVGRDIAHAKFKEIIDAGKPVPEYLLNHPIYYAGPAKTPAGKPSGSFGPTTAGRMDSYVDLLQSKGASMIMIAKGNRSQQVTDACQKYGGFYLGSIGGPAAVLAEENIKKVECIDFPELGMEAVWKIEVENFPAFILVDDKGNDFFKQLGL | not soluble |
| MGSDKIHHHHHHMSAFNAVQVGRRVLAVEADALRVLADSLGEAFANAVETIFNAKGRVVCTGMGKSGHVARKIAATLASTGTQAMFVHPAEASHGDLGMIGPDDVVLALSKSGAGRELADTLAYAKRFSIPLIAMTAVADSPLGQAGDILLLLPDAPEGTAEVNAPTTSTTLQIALGDAIAVALLERRGFTASDFRVFHPGGKLGAMLRTVGDLMHGADELPLVAADAAMPDALLVMSEKRFGAVGVVDNAGHLAGLITDGDLRRHMDGLLTHTAGEVMTHAPLTIGPGALAAEALKVMNERRITVLFVVERERPVGILHVHDLLRAGVI | not soluble |
| MTPDFQIVTQRLQLRLITADEAEELVQCIRQSQTLHQWVDWCHALFSQQEAEQFIQATRLNWVKAEAYGFGVFERQTQTLVGMVAINEFYHTFNMASLGYWIGDRYQRQGYGKEALTALILFCFERLELTRLEIVCDPENVPSQALALRCGANREQLAPNRFLYAGEPKAGIVFSLIP | soluble |
| MSFLNNDFGSPPATSSPPTTMPKLPTIQDMLNNIGASTVNLMQPNPYLMQNQIPLPVPNLPLNPFLHLNPAISQEIIQQFIAMSFNTPNVLASIANMGDDEGPSCNPKMRRGDLLKSVSMDSTEDPPSITLDNNGDMIVPNNDKEGWCRNKKYIEQTENGYMCTVCRKVYGRYNSVSYHVTIYHRNPPIKCNVPNCQFTTREARYIHFHKNYRHGIPLPESIDQGSRKCPHCRHVSKSPAMLEKHIRRHQIKDGLSNINEAIRERTSTICDEAMEIEPAETEVDPIETKPRSCTL | not soluble |
| CSPVRERRLEHQLEPGDTLAGLALKYGVTMEQIKRANRLYTNDSIFLKKTLYIPILTEPRDLFN | soluble |
| MEIRVKCRCGEEECSEWAIVELQGVVETQASFQGSIQNLEIGRLCHSDSSQGTYTFTVGYHELVGSKVTLKKPLLVLKKLQFDEVSGKATELEVVGIIRTKILFKTRPKPLISGNNNLSLFCS | not soluble |
| MAHHHHHHVDDDDKMYQSAIKVEPASPPYYSEKTQLYNKPHEEPSNSLMAIECRVCGDKASGFHYGVHACEGCKGFFRRTIRLKLIYDRCDLNCRIHKKSRNKCQYCRFQKCLAVGMSHNAIRFGRMPQAEKEKLLAEISSDIDQLNPESADLRALAKHLYDSYIKSFPLTKAKARAILTGKTTDKSPFVIYDMNSLMMGEDKIKFKHITPLQEQSKEVAIRIFQGCQFRSVEAVQEITEYAKSIPGFVNLDLNDQVTLLKYGVHEIIYTMLASLMNKDGVLISEGQGFMTREFLKSLRKPFGDFMEPKFEFAVKFNALELDDSDLAIFIAVIILSGDRPGLLNVKPIEDIQDNLLQALELQLKLNHPESSQLFAKLLQKMTDLRQIVTEHVQLLQVIKKTETDMSLHPLLQEIYKDLY | soluble |
| MKANQLDILIVPGYKGSDPDHWQTRWEKKLSTARRVQQTHWSKPICEEWVNEVKIAIAQSQKPIVIIAHSLGVPTTIHATLKNAEKVRGAFFVAPPDVSNEKIRPKHLMTFGPYHCKKLSFPSVVIASRNDEFCQFSVAEKLAGDWGALFVDAGLSGHINVESGHGPWPEGLMVFSHFLAKI | not soluble |
| MSLKLFCFKAIIFPIVGGSFNNGTNVFQSTVIVISLDGFRADYLYRGFTPNLLSLAERNVHVPFLIPSFPSITFPNHYTIVTGLYPESHGIVSNNFFDPVTGKQFVNSMPECNKDPTWWDKGEPIWVNAERNNVRSAVHMWPGNEVENHGYRPTYSDGFNFDTTLREKKDRILEWLDLPDKDRPQLLLAYAPHVDMVGHAFGPDSPELNIIIQEVDIVIGELIEGLKKRNIDKHVNIIFLSDHGMAPTSDNRLIWLDNMFNLSAVAHRDAWPLGGFRGESDLDDEYIYESLVNYSRSSLPSAENWNVYSKKDIPSRWHYSNNERIAPVWMIPDVGWSLVSMLDHSPELEYEPLGVHGYDNLSPVMRALFIASGSSFKNFKGKKLAPFQNTEIYGILSHILDLPAQPNNGTYEGALPLRRNRNSTKEWLLKDIEQAYSKLIEGHHHHHH | not soluble |
| GAMAGMNIKDRTSEFQQSVLSYKKRNKNFREQQRERLQEKESENFANNTT | soluble |
| MSTDVAAAQAQSKIDLTKKKNEEINKKSLEEDDEFEDFPIDTWANGETIKSNAVTQTNIWEENWDDVEVDDDFTNELKAELDRYKRENQ | soluble |
